For one series, the target named is T1, COUP-TFII;NKX2-1 (mouse;, UniProt P43135;P50220 1-414;1-372, |).
T1 sequence 1: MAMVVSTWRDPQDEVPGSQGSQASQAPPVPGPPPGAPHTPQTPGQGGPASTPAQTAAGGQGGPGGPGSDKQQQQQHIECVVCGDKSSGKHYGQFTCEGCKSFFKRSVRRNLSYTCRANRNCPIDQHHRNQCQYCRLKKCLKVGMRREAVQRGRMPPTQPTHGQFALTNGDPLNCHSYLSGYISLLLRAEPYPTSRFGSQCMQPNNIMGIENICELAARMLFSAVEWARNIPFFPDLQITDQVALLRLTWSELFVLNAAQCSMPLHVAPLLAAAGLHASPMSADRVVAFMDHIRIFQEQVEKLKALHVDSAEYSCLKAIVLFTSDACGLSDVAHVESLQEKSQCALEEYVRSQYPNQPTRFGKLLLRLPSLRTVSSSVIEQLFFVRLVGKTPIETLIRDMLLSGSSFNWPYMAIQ
T1 sequence 2: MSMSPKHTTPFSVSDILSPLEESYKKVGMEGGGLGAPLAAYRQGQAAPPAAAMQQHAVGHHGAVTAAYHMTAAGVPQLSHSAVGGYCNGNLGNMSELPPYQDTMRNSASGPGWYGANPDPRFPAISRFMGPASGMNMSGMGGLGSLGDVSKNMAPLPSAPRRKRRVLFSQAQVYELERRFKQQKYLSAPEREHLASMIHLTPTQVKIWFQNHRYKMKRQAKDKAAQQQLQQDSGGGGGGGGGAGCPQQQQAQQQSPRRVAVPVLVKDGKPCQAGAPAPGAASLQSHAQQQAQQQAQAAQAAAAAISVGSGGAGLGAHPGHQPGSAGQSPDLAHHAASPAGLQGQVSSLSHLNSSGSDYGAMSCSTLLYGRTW
As to the kind of experiment: EMSA. In general terms: Mobility shift assays separate free from complexed probe on a gel.

The target in series [1] is T2, COUP-TFII-GST (mouse, UniProt P43135 1-414).
T2 sequence: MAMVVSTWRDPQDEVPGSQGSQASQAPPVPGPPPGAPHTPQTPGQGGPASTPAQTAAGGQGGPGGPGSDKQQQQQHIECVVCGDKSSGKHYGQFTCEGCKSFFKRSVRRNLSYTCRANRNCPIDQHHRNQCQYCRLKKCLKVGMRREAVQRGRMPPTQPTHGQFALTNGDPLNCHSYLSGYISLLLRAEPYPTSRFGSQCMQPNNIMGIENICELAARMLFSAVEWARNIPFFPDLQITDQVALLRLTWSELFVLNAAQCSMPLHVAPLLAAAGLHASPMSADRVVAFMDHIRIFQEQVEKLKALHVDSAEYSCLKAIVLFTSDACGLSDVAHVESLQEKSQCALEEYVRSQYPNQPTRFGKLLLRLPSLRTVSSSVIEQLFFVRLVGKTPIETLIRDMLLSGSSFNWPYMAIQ
Nature of the series: EMSA.

Series [2] addresses T3, recombinant COUP-TFII (construct not told for this experiment) (mouse, UniProt P43135 1-414).
T3 sequence (looked up): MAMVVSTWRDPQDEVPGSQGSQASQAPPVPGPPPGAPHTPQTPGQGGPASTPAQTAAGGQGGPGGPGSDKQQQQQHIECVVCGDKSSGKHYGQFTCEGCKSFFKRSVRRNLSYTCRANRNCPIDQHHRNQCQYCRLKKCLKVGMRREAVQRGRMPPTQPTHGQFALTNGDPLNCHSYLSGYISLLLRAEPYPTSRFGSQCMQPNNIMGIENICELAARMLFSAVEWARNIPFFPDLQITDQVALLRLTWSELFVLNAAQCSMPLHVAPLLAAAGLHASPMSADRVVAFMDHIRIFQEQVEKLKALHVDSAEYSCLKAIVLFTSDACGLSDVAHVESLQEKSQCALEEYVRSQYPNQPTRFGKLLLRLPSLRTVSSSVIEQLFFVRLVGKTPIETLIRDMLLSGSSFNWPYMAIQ
Nature of the series: native gel or EMSA.

Series [3] concerns the target T4, COUP-TFII-GST (mouse, UniProt P43135 1-414).
T4 sequence (looked up): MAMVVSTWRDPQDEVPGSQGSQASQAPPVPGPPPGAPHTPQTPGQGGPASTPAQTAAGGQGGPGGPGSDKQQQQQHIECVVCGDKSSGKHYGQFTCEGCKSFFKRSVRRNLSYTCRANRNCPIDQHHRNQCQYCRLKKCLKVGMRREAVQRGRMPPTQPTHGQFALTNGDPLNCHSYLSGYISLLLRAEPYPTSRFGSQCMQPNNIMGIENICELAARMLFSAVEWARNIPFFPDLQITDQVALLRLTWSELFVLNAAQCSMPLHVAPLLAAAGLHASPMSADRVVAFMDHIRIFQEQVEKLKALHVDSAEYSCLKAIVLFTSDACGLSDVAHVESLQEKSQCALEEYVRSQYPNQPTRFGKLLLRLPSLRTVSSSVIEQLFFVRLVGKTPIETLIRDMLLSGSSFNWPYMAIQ
Nature of the series: native gel or EMSA.

These results are taken from article doi:10.1101/2022.02.17.480956 (bioRxiv, 2022).

B1: Nrp2 NCCE (dsDNA)
DNA 1: TTGCCAAATTATGTGACCTTTGGCAGACCAGCTG
DNA 2: CAGCTGGTCTGCCAAAGGTCACATAATTTGGCAA
Regarding B1, the binding result in the series with COUP-TFII;NKX2-1 is on record as “binds”.

B2: CE_ΔC_AB (dsDNA)
DNA 1: CCATGCACTTGAAAAAAAATGGAAAAACACCTCC
DNA 2: GGAGGTGTTTTTCCATTTTTTTTCAAGTGCATGG
Regarding B2, the binding result with COUP-TFII-GST [1] was “no binding”.

B3: recombinant NKX2-3 (natural protein, mouse, UniProt P97334 1-362, looked up)
chain: MMLPSPVTSTPFSVKDILNLEQQRHFHGAHLQAELEQHFHSAPCMLATAEGTQFSDAGEEDEEEEGEKLSYLNSLAAAEGHGDSGLCPQSYVHTVLRDACSGPKEQEEEVVSERSQKSCQLKKSLEAAGDCKTSEDGERPKPRSRRKPRVLFSQAQVFELERRFKQQRYLSAPEREHLASSLKLTSTQVKIWFQNRRYKCKRQRQDKSLELGTHAPPPPPRRVAVPVLVRDGKPCVTPSAQTYGSPYGVGAGAYSYNSFPAYGYGNSAAAAAAAAAAAAAAAAYSGSYGCAYPTGGGGGGGGTASAATTAMQPACSATGGGSFVNVSNLGGFGSGGGAQPLHQGAAAGSACTQGTLQGIRAW
Turning to B3, the binding result (in series [2]; with COUP-TFII-GST [3]) was “binds” in each case.
